# “And” between values parts separate entries of the source, which are not always exact repeats. Identical values can stand only once.
# What was measured:
# [1] = target: K2-2 (phage tailspike protein, K2 capsular polysaccharide depolymerase), wild type with an N-terminal His-tag (not stated (bacteriophage of Klebsiella pneumoniae, phage not named)); assay: SEC-MALS; 100 microgram protein in 20 mM Tris pH 8.0, 100 mM NaCl, 0.02% NaN3; ENrich SEC 650 column, 0.5 ml/min
# [2] = target: K2-2 (phage tailspike protein, K2 capsular polysaccharide depolymerase), wild type with an N-terminal His-tag (not stated (bacteriophage of Klebsiella pneumoniae, phage not named)); assay: crystal structure; N-terminally His-tagged K2-2 (wild type, and E323A soaked with 10 mM hydrolyzed K2 CPS products for 18 h); crystallised at 15°C, 0.1 M Bicine pH 9.0, 22% PEG-6000; space groups P2(1) and C2
# [3] = target: K2-2 D515A mutant (not stated (bacteriophage of Klebsiella pneumoniae, phage not named)); assay: SEC-MALS; 100 microgram protein in 20 mM Tris pH 8.0, 100 mM NaCl, 0.02% NaN3; ENrich SEC 650 column, 0.5 ml/min
# [4] = target: K2-2 E323A mutant (not stated (bacteriophage of Klebsiella pneumoniae, phage not named)); assay: crystal structure; N-terminally His-tagged K2-2 (wild type, and E323A soaked with 10 mM hydrolyzed K2 CPS products for 18 h); crystallised at 15°C, 0.1 M Bicine pH 9.0, 22% PEG-6000; space groups P2(1) and C2
# [5] = target: K2-2 S424A mutant (not stated (bacteriophage of Klebsiella pneumoniae, phage not named)); assay: SEC-MALS; 100 microgram protein in 20 mM Tris pH 8.0, 100 mM NaCl, 0.02% NaN3; ENrich SEC 650 column, 0.5 ml/min
# [6] = target: K2-2 with a C-terminal His-tag (K2-2^C-His) (not stated (bacteriophage of Klebsiella pneumoniae, phage not named)); assay: as above
# [7] = target: K2-2 with a C-terminal His-tag (K2-2^C-His) (not stated (bacteriophage of Klebsiella pneumoniae, phage not named)); assay: crystal structure; K2-2^C-His crystallised at 15°C, 0.1 M Bicine pH 9.0, 10% PEG-4000, 10% polyacrylic acid 2100 sodium salt; Se-MAD phasing; space group P6(3)
substance,measurement,setting,value
"K2-2 (phage tailspike protein, K2 capsular polysaccharide depolymerase), wild type with an N-terminal His-tag (enzyme)",stoichiometry N,[1],3
same,stoichiometry N,[2],3
K2-2 D515A mutant (enzyme),stoichiometry N,[3],2
K2-2 E323A mutant (enzyme),stoichiometry N,[4],3
K2-2 S424A mutant (enzyme),stoichiometry N,[5],3
K2-2 with a C-terminal His-tag (K2-2^C-His) (enzyme),stoichiometry N,[6],4 and 3
same,stoichiometry N,[7],4

# — paper PMC10936425
